Data: patent US20200024322A1 (Eli Lilly, published 2020)
Numbered stars: 1 amine (or outer) side, 2 acyl side, 3 side chain; on linkers, the order of the positions; unused ones are H or OH. Square brackets hold non-standard residues; d marks the D form. Side chains are listed from the residue outwards. Ends that are not written are not given here. * marks the point of attachment. C20 diacid = O=C(O)CCCCCCCCCCCCCCCCCCC(=O)*; γGlu = O=C(O)[C@H](CCC(=O)[*:2])N[*:1]; AEEA = NCCOCCOCC(=O)O; Aib = CC(C)(N)C(=O)O

Experiments:
human GIP receptor = molecular target: T1, human GIP receptor (human, UniProt P48546 22-466); test: SPA, [125I]-GIP displacement, hGIPR membranes
T1 construct: whole, on cells; Used as crude membranes of stably transfected CHO cells; also called hGIPR
T1 sequence (looked up): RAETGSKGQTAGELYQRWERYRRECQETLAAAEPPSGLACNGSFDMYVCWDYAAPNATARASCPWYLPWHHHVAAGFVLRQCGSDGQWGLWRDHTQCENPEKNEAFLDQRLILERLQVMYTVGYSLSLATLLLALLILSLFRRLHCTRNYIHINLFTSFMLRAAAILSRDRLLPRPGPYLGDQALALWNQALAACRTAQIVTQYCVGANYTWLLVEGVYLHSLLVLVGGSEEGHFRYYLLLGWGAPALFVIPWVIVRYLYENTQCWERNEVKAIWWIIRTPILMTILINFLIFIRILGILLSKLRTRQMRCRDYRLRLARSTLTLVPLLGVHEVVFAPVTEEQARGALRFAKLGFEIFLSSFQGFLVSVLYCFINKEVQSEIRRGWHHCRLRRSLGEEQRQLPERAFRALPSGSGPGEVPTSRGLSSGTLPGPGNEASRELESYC

human glucagon receptor = molecular target: T2, human glucagon receptor (human, UniProt P47871 26-477); test: SPA, [125I]-Gcg displacement, hGcgR membranes
T2 construct: whole, on cells; Used as crude membranes of stably transfected HEK293 cells; also called hGcgR; hGLcgR
T2 sequence (P47871 26-477): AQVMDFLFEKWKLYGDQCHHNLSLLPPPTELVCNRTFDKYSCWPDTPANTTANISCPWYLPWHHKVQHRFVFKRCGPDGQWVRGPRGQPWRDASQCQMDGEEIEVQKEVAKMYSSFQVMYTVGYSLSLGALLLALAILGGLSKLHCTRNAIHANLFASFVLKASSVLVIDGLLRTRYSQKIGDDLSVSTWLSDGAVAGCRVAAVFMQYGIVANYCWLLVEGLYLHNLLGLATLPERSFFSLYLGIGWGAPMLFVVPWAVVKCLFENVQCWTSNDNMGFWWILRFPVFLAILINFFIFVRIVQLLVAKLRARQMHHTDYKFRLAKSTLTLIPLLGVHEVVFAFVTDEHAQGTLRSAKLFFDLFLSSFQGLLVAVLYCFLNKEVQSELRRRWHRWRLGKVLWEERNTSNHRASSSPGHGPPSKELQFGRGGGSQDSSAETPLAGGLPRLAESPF

human GLP-1 receptor = molecular target: T3, human GLP-1 receptor (human, UniProt P43220 24-463); test: SPA, [125I]-GLP-1 displacement, hGLP-1R membranes
T3 construct: whole, on cells; Used as crude membranes of stably transfected HEK293 cells; also called hGLP1R; hGLP-1R

B1: Example 30 (peptide)
peptide: Y[Aib]EGTFTSDYSILLDKIK([AEEA-AEEA-γGlu-C20 diacid])Q[Aib]AFIEYLIEGGPSSGAPPPS-NH2
modifications: N-terminus assumed
SMILES: CC[C@H](C)[C@H](NC(=O)[C@H](CC(C)C)NC(=O)[C@H](Cc1ccc(O)cc1)NC(=O)[C@H](CCC(=O)O)NC(=O)[C@@H](NC(=O)[C@H](Cc1ccccc1)NC(=O)[C@H](C)NC(=O)C(C)(C)NC(=O)[C@H](CCC(N)=O)NC(=O)[C@H](CCCCNC(=O)COCCOCCNC(=O)COCCOCCNC(=O)CC[C@H](NC(=O)CCCCCCCCCCCCCCCCCCC(=O)O)C(=O)O)NC(=O)[C@@H](NC(=O)[C@H](CCCCN)NC(=O)[C@H](CC(=O)O)NC(=O)[C@H](CC(C)C)NC(=O)[C@H](CC(C)C)NC(=O)[C@@H](NC(=O)[C@H](CO)NC(=O)[C@H](Cc1ccc(O)cc1)NC(=O)[C@H](CC(=O)O)NC(=O)[C@H](CO)NC(=O)[C@@H](NC(=O)[C@H](Cc1ccccc1)NC(=O)[C@@H](NC(=O)CNC(=O)[C@H](CCC(=O)O)NC(=O)C(C)(C)NC(=O)[C@@H](N)Cc1ccc(O)cc1)[C@@H](C)O)[C@@H](C)O)[C@@H](C)CC)[C@@H](C)CC)[C@@H](C)CC)C(=O)N[C@@H](CCC(=O)O)C(=O)NCC(=O)NCC(=O)N1CCC[C@H]1C(=O)N[C@@H](CO)C(=O)N[C@@H](CO)C(=O)NCC(=O)N[C@@H](C)C(=O)N1CCC[C@H]1C(=O)N1CCC[C@H]1C(=O)N1CCC[C@H]1C(=O)N[C@@H](CO)C(N)=O
With B1 the Ki (human GIP receptor) was 0.151 nM, the Ki (human glucagon receptor) was 123 nM and the Ki (human GLP-1 receptor) was 6.2 nM.

B2: Example 34 (peptide)
peptide: Y[Aib]EGTFTSDYSILLDKIAQ[Aib]AFIK([AEEA-AEEA-γGlu-C20 diacid])YLIEGGPSSGAPPPS-NH2
modifications: N-terminus assumed
SMILES: CC[C@H](C)[C@H](NC(=O)[C@H](CCCCN)NC(=O)[C@H](CC(=O)O)NC(=O)[C@H](CC(C)C)NC(=O)[C@H](CC(C)C)NC(=O)[C@@H](NC(=O)[C@H](CO)NC(=O)[C@H](Cc1ccc(O)cc1)NC(=O)[C@H](CC(=O)O)NC(=O)[C@H](CO)NC(=O)[C@@H](NC(=O)[C@H](Cc1ccccc1)NC(=O)[C@@H](NC(=O)CNC(=O)[C@H](CCC(=O)O)NC(=O)C(C)(C)NC(=O)[C@@H](N)Cc1ccc(O)cc1)[C@@H](C)O)[C@@H](C)O)[C@@H](C)CC)C(=O)N[C@@H](C)C(=O)N[C@@H](CCC(N)=O)C(=O)NC(C)(C)C(=O)N[C@@H](C)C(=O)N[C@@H](Cc1ccccc1)C(=O)N[C@H](C(=O)N[C@@H](CCCCNC(=O)COCCOCCNC(=O)COCCOCCNC(=O)CC[C@H](NC(=O)CCCCCCCCCCCCCCCCCCC(=O)O)C(=O)O)C(=O)N[C@@H](Cc1ccc(O)cc1)C(=O)N[C@@H](CC(C)C)C(=O)N[C@H](C(=O)N[C@@H](CCC(=O)O)C(=O)NCC(=O)NCC(=O)N1CCC[C@H]1C(=O)N[C@@H](CO)C(=O)N[C@@H](CO)C(=O)NCC(=O)N[C@@H](C)C(=O)N1CCC[C@H]1C(=O)N1CCC[C@H]1C(=O)N1CCC[C@H]1C(=O)N[C@@H](CO)C(N)=O)[C@@H](C)CC)[C@@H](C)CC
B2 was tested, and the Ki (human GIP receptor) was 0.0467 nM, the Ki (human glucagon receptor) was 134 nM and the Ki (human GLP-1 receptor) was 3.41 nM.

B3: Example 31 (peptide)
peptide: Y[Aib]EGTFTSDYSILLDKIAK([AEEA-AEEA-γGlu-C20 diacid])[Aib]AFIEYLIEGGPSSGAPPPS-NH2
modifications: N-terminus assumed
SMILES: CC[C@H](C)[C@H](NC(=O)[C@H](CCCCN)NC(=O)[C@H](CC(=O)O)NC(=O)[C@H](CC(C)C)NC(=O)[C@H](CC(C)C)NC(=O)[C@@H](NC(=O)[C@H](CO)NC(=O)[C@H](Cc1ccc(O)cc1)NC(=O)[C@H](CC(=O)O)NC(=O)[C@H](CO)NC(=O)[C@@H](NC(=O)[C@H](Cc1ccccc1)NC(=O)[C@@H](NC(=O)CNC(=O)[C@H](CCC(=O)O)NC(=O)C(C)(C)NC(=O)[C@@H](N)Cc1ccc(O)cc1)[C@@H](C)O)[C@@H](C)O)[C@@H](C)CC)C(=O)N[C@@H](C)C(=O)N[C@@H](CCCCNC(=O)COCCOCCNC(=O)COCCOCCNC(=O)CC[C@H](NC(=O)CCCCCCCCCCCCCCCCCCC(=O)O)C(=O)O)C(=O)NC(C)(C)C(=O)N[C@@H](C)C(=O)N[C@@H](Cc1ccccc1)C(=O)N[C@H](C(=O)N[C@@H](CCC(=O)O)C(=O)N[C@@H](Cc1ccc(O)cc1)C(=O)N[C@@H](CC(C)C)C(=O)N[C@H](C(=O)N[C@@H](CCC(=O)O)C(=O)NCC(=O)NCC(=O)N1CCC[C@H]1C(=O)N[C@@H](CO)C(=O)N[C@@H](CO)C(=O)NCC(=O)N[C@@H](C)C(=O)N1CCC[C@H]1C(=O)N1CCC[C@H]1C(=O)N1CCC[C@H]1C(=O)N[C@@H](CO)C(N)=O)[C@@H](C)CC)[C@@H](C)CC
With B3 the Ki (human GIP receptor) was 0.0275 nM, the Ki (human glucagon receptor) was 290 nM and the Ki (human GLP-1 receptor) was 6.58 nM.

B4: Example 32 (peptide)
peptide: Y[Aib]EGTFTSDYSILLDKIAQ[Aib]K([AEEA-AEEA-γGlu-C20 diacid])FIEYLIEGGPSSGAPPPS-NH2
modifications: N-terminus assumed
SMILES: CC[C@H](C)[C@H](NC(=O)[C@H](CCCCN)NC(=O)[C@H](CC(=O)O)NC(=O)[C@H](CC(C)C)NC(=O)[C@H](CC(C)C)NC(=O)[C@@H](NC(=O)[C@H](CO)NC(=O)[C@H](Cc1ccc(O)cc1)NC(=O)[C@H](CC(=O)O)NC(=O)[C@H](CO)NC(=O)[C@@H](NC(=O)[C@H](Cc1ccccc1)NC(=O)[C@@H](NC(=O)CNC(=O)[C@H](CCC(=O)O)NC(=O)C(C)(C)NC(=O)[C@@H](N)Cc1ccc(O)cc1)[C@@H](C)O)[C@@H](C)O)[C@@H](C)CC)C(=O)N[C@@H](C)C(=O)N[C@@H](CCC(N)=O)C(=O)NC(C)(C)C(=O)N[C@@H](CCCCNC(=O)COCCOCCNC(=O)COCCOCCNC(=O)CC[C@H](NC(=O)CCCCCCCCCCCCCCCCCCC(=O)O)C(=O)O)C(=O)N[C@@H](Cc1ccccc1)C(=O)N[C@H](C(=O)N[C@@H](CCC(=O)O)C(=O)N[C@@H](Cc1ccc(O)cc1)C(=O)N[C@@H](CC(C)C)C(=O)N[C@H](C(=O)N[C@@H](CCC(=O)O)C(=O)NCC(=O)NCC(=O)N1CCC[C@H]1C(=O)N[C@@H](CO)C(=O)N[C@@H](CO)C(=O)NCC(=O)N[C@@H](C)C(=O)N1CCC[C@H]1C(=O)N1CCC[C@H]1C(=O)N1CCC[C@H]1C(=O)N[C@@H](CO)C(N)=O)[C@@H](C)CC)[C@@H](C)CC
B4 gave a Ki (human GIP receptor) of 0.0205 nM, a Ki (human glucagon receptor) of 44.7 nM and a Ki (human GLP-1 receptor) of 3.96 nM.
